Results as given in article PMC4670963.

How the values were obtained:
Flag-tagged Sufu [1] = target: Flag-tagged Sufu (UniProt Q9UMX1); experiment: co-IP; As a2 but with co-expressed exogenous HA-Hck or kinase-inactive Hck-K269E; immunoprecipitated with anti-Flag; western blot with anti-HA, anti-Flag or 4G10
Flag-tagged Sufu [2] = target: Flag-tagged Sufu (UniProt Q9UMX1); experiment: co-IP; NIH3T3 cells transfected with HA-Gli1 or HA-Gli2 and Flag-Sufu, without exogenous Hck; immunoprecipitated with anti-Flag; western blot with anti-HA or anti-Flag; bands quantified with ImageJ against the input

UniProt Q9UMX1, sequence (Q9UMX1 whole entry): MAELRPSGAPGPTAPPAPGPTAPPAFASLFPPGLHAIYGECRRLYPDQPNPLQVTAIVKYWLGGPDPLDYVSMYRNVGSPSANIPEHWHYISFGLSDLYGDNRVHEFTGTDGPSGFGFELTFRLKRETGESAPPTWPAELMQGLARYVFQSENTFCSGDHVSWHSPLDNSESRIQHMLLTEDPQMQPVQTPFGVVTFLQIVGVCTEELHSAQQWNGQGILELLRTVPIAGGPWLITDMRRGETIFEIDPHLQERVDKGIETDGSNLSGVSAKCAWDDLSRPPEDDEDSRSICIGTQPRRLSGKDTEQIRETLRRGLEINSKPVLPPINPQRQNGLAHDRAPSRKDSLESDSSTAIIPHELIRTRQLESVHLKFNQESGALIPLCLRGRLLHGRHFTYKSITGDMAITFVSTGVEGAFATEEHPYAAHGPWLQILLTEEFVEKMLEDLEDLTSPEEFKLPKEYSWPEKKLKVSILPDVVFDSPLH

percent of Gli1 co-precipitated with Sufu (against the input), with co-expressed HA-Hck (Flag-tagged Sufu [1]): 5% | percent of Gli1 co-immunoprecipitated with Sufu (against the input) (Flag-tagged Sufu [2]): 30%
Substance: HA-Gli1 (from UniProt P08151 1-1106) (natural protein)
